This is an account of results in IntAct's records for PubMed 14532330.

Sequences and labels used below:
B1: Laforin (Homo sapiens), O95278 (parent)
chain: MRFRFGVVVPPAVAGARPELLVVGSRPELGRWEPRGAVRLRPAGTAAGDGALALQEPGLWLGEVELAAEEAAQDGAEPGRVDTFWYKFLKREPGGELSWEGNGPHHDRCCTYNENNLVDGVYCLPIGHWIEATGHTNEMKHTTDFYFNIAGHQAMHYSRILPNIWLGSCPRQVEHVTIKLKHELGITAVMNFQTEWDIVQNSSGCNRYPEPMTPDTMIKLYREEGLAYIWMPTPDMSTEGRVQMLPQAVCLLHALLEKGHIVYVHCNAGVGRSTAAVCGWLQYVMGWNLRKVQYFLMAKRPAVYIDEEALARAQEDFFQKFGKVRSSVCSL
partner: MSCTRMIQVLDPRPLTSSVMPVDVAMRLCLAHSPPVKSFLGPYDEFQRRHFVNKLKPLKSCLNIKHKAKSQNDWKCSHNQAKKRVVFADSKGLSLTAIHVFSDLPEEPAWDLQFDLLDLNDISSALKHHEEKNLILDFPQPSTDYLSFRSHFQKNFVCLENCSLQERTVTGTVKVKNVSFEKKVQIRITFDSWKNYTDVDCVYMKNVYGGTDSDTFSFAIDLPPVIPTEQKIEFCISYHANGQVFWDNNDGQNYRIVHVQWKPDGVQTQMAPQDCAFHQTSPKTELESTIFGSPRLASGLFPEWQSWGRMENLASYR
B2: Protein phosphatase 1 regulatory subunit 3C (Homo sapiens), Q9UQK1 (parent)
chain: B1 partner
partner: B1 chain

The variants in one assay derive from B1. The settings on record: with ppr3c_human PPP1R3C.
As to MRFRFGVVVPPAVAGARPELLVVGSRPELGRWEPRGAVRLRPAGTAAGDGALALQEPGLWLGEVELAAEEAAQDGAEPGRVDTLWYKFLKREPGGELSWEGNGPHHDRCCTYNENNLVDGVYCLPIGHWIEATGHTNEMKHTTDFYFNIAGHQAMHYSRILPNIWLGSCPRQVEHVTIKLKHELGITAVMNFQTEWDIVQNSSGCNRYPEPMTPDTMIKLYREEGLAYIWMPTPDMSTEGRVQMLPQAVCLLHALLEKGHIVYVHCNAGVGRSTAAVCGWLQYVMGWNLRKVQYFLMAKRPAVYIDEEALARAQEDFFQKFGKVRSSVCSL [F84L], the “effect of a mutation on the interaction” value is “disrupting interaction”.
As to MRFRFGVVVPPAVAGARPELLVVGSRPELGRWEPRGAVRLRPAGTAAGDGALALQEPGLWLGEVELAAEEAAQDGAEPGRVDTFWYKFLKREPGGELSWEGNGPHHDRCCTYNENNLVDGVYCLPIGHWIEATGHTNEMKHTTDFYFNIAGHQAMHYSRILPNIWLGSCPRQVEHVTIKLKHELGITAVMNFQTEWDIVQNSSGCNRYPEPMTPDTMIKLYREEGLAYIWMPTPDMSTESRVQMLPQAVCLLHALLEKGHIVYVHCNAGVGRSTAAVCGWLQYVMGWNLRKVQYFLMAKRPAVYIDEEALARAQEDFFQKFGKVRSSVCSL [G240S], the “effect of a mutation on the interaction” value is “decreasing interaction”.
The same measure, in the same setting: as for MRFRFGVVVPPAVAGARPELLVVGSRPELGRWEPRGAVRLRPAGTAAGDGALALQEPGLWLGEVELAAEEAAQDGAEPGRVDTFWYKFLKREPGGELSWEGNGPHHDRCCTYNENNLVDGVYCLPIGHWIEATGHTNEMKHTTDFYFNIAGHQAMHYSRILPNIWLGSCPRQVEHVTIKLKHELGITAVMNFQTEWDIVQNSSGCNRYPEPMTPDTMIKLYREEGLAYIWMPTPDMSTEGRVQMLPQAVCLLHALLEKGHIVYVHCNAGVGRSTAAVCSWLQYVMGWNLRKVQYFLMAKRPAVYIDEEALARAQEDFFQKFGKVRSSVCSL [G279S], the entry is “decreasing interaction”; as for MRFRFGVVVPPAVAGARPELLVVGSRPELGRWEPRGAVRLRPAGTAAGDGALALQEPGLWLGEVELAAEEAAQDGAEPGRVDTFWYKFLKREPGGELSWEGNGPHHDCCCTYNENNLVDGVYCLPIGHWIEATGHTNEMKHTTDFYFNIAGHQAMHYSRILPNIWLGSCPRQVEHVTIKLKHELGITAVMNFQTEWDIVQNSSGCNRYPEPMTPDTMIKLYREEGLAYIWMPTPDMSTEGRVQMLPQAVCLLHALLEKGHIVYVHCNAGVGRSTAAVCGWLQYVMGWNLRKVQYFLMAKRPAVYIDEEALARAQEDFFQKFGKVRSSVCSL [R108C], “disrupting interaction”; as for MRFRFGVVVPPAVAGARPELLVVGSRPELGRWEPRGAVRLRPAGTAAGDGALALQEPGLWLGEVELAAEEAAQDGAEPGRVDTFWYKFLKREPGGELSWEGNGPHHDRCCTYNENNLVDGVYCLPIGHWIEATGHTNEMKHTTDFYFNIAGHQAMHYSRILPNIWLGSCPRQVEHVTIKLKHELGITAVMNFQTEWDIVQNSSGCNRYPEPMTPDTMIKLYREEGLAYIWMPTPDMSTEGRVQMLPQAVCLLHALLEKGHIVYVHCNAGVGRSTAAVCGWLQYVMGWNLRKVLYFLMAKRPAVYIDEEALARAQEDFFQKFGKVRSSVCSL [Q293L], “disrupting interaction”.
For MRFRFGVVVPPAVAGARPELLVVGSRPELGRWEPRGAVRLRPAGTAAGDGALALQEPGLWLGEVELAAEEAAQDGAEPGRVDTFWYKFLKREPGGELSWEGNGPHHDRCCTYNENNLVDGVYCLPIGHWIEATGHTNEMKHTTDFYFNIAGHQAMHYSRILPNIWLGSCPRQVEHVTIKLKHELGITAVMNFQTEWDIVQNSSGCNRYPEPMTPDTMIKLYREEGLAYIWMPTPDMSTEGRVQMLPQAVCLLHALLEKGHIVYVHSNAGVGRSTAAVCGWLQYVMGWNLRKVQYFLMAKRPAVYIDEEALARAQEDFFQKFGKVRSSVCSL [C266S], the “effect of a mutation on the interaction” value is recorded as “increasing interaction”.
Take MRFRFGVVVPPAVAGARPELLVVGSRPELGRWEPRGAVRLRPAGTAAGDGALALQEPGLWLGEVELAAEEAAQDGAEPGRVDTFWYKFLKREPGGELSWEGNGPHHDRCCTYNENNLVDGVYCLPIGHWIEATGHTNEMKHTTDFYFNIAGHQAMHYSRILPNIWLGSCPRQVEHVTIKLKHELGITAVMNFQTEWDIVQNSSGCNRYPEPMTPDTMIKLYREEGLAYIWMPTPDMSTEGRVQMLPQAVCLLHALLEKGHIVYVHCNAGVGRSTAAVCGWLQYVMGWNLRKVQYFLMAKRLAVYIDEEALARAQEDFFQKFGKVRSSVCSL [P301L]: the “effect of a mutation on the interaction” value is “disrupting interaction”.
For MRFRFGVVVPPAVAGARPELLVVGSRPELGRWEPRGAVRLRPAGTAAGDGALALQEPGLWLGEVELAAEEAAQDGAEPGRVDTFWYKFLKREPGGELSWEGNGPHHDRCCTYNENNLVDGVYCLPIGHWIEATGHTNEMKHTTDFYFNIAGHQAMHYSRILPNIWLGSCPRQVEHVTIKLKHELGITAVMNFQTEWDIVQNSSGCNRYPEPMTPDTMIKLYREEGLAYIWMPTPDMSTEGRVQMLPQAVCLLHALLEKGHIVYVHCNAGVGRSTAAVCGWLQYVMGWNLRKVQNFLMAKRPAVYIDEEALARAQEDFFQKFGKVRSSVCSL [Y294N], the “effect of a mutation on the interaction” value was “disrupting interaction”.
Regarding MRFRFGVVVPPAVAGARPELLVVGSRPELGRWEPRGAVRLRPAGTAAGDGALALQEPGLWLGEVELAAEEAAQDGAEPGRVDTFWYKFLKREPGGELSWEGNGPHHDRCCTYNENNLVDGVYCLPIGHWIEATGHTNEMKHTTDFYFNIAGHQAMHYSRILPNIWLGSCPRQVEHVTIKLKHELGITAVMNFQIEWDIVQNSSGCNRYPEPMTPDTMIKLYREEGLAYIWMPTPDMSTEGRVQMLPQAVCLLHALLEKGHIVYVHCNAGVGRSTAAVCGWLQYVMGWNLRKVQYFLMAKRPAVYIDEEALARAQEDFFQKFGKVRSSVCSL [T194I], the “effect of a mutation on the interaction” value is “disrupting interaction”.
For the variant MRFRFGVVVPPAVAGARPELLVVGSRPELGRGEPRGAVRLRPAGTAAGDGALALQEPGLWLGEVELAAEEAAQDGAEPGRVDTFWYKFLKREPGGELSWEGNGPHHDRCCTYNENNLVDGVYCLPIGHWIEATGHTNEMKHTTDFYFNIAGHQAMHYSRILPNIWLGSCPRQVEHVTIKLKHELGITAVMNFQTEWDIVQNSSGCNRYPEPMTPDTMIKLYREEGLAYIWMPTPDMSTEGRVQMLPQAVCLLHALLEKGHIVYVHCNAGVGRSTAAVCGWLQYVMGWNLRKVQYFLMAKRPAVYIDEEALARAQEDFFQKFGKVRSSVCSL [W32G], the “effect of a mutation on the interaction” value was “disrupting interaction”.

In a further assay the parent is B2. The settings on record: with epm2a_human EPM2A.
In the case of MSCTRMIQVLDPRPLTSSVMPVDVAMRLCLAHSPPVKSFLGPYDEFQRRHFVNKLKPLKSCLNIKHKAKSQNDWKCSHNQAKKRVVFADSKGLSLTAIHVFSDLPEEPAWDLQFDLLDLNDISSALKHHEEKNLILDFPQPSTDYLSFRSHFQKNFVCLENCSLQERTVTGTVKVKNVSFEKKVQIRITFDSWKNYTDVDCVYMKNVYGGTDSDTFSFAIDLPPVIPTEQKIEFCISYHANGQVFWANNAGQNYRIVHVQWKPDGVQTQMAPQDCAFHQTSPKTELESTIFGSPRLASGLFPEWQSWGRMENLASYR [D247A;D250A], the “effect of a mutation on the interaction” value is “disrupting interaction”.
